B1: His6-tagged recombinant NOD1 CARD (residues 15-110), wild type (domain or fragment, human, UniProt Q9Y239-1 15-110, looked up)
chain: ESHPHIQLLKSNRELLVTHIRNTQCLVDNLLKNDYFSAEDAEIVCACPTQPDKVRKILDLVQSKGEEVSEFFLYLLQQLADAYVDLRPWLLEIGFS
notes: NOD1 CARD domain, human, residues 15-110; the dimer is stabilised by an interprotomer disulfide bond through Cys-39 (from the cited crystal structures); also called wild-type NOD1 CARD; wild-type NOD1
B2: His6-tagged recombinant NOD1 CARD (residues 15-110) A55V (domain or fragment, human, UniProt Q9Y239-1 15-110, looked up)
chain: ESHPHIQLLKSNRELLVTHIRNTQCLVDNLLKNDYFSAEDVEIVCACPTQPDKVRKILDLVQSKGEEVSEFFLYLLQQLADAYVDLRPWLLEIGFS
notes: NOD1 CARD domain, human, residues 15-110, A55V (a polymorphism)
B3: His6-tagged recombinant NOD1 CARD (residues 15-110) N43S (domain or fragment, human, UniProt Q9Y239-1 15-110, looked up)
chain: ESHPHIQLLKSNRELLVTHIRNTQCLVDSLLKNDYFSAEDAEIVCACPTQPDKVRKILDLVQSKGEEVSEFFLYLLQQLADAYVDLRPWLLEIGFS
notes: NOD1 CARD domain, human, residues 15-110, N43S (a rare polymorphism)
B4: His6-tagged recombinant NOD1 CARD (residues 15-110) E56K (domain or fragment, human, UniProt Q9Y239-1 15-110, looked up)
chain: ESHPHIQLLKSNRELLVTHIRNTQCLVDNLLKNDYFSAEDAKIVCACPTQPDKVRKILDLVQSKGEEVSEFFLYLLQQLADAYVDLRPWLLEIGFS
notes: NOD1 CARD domain, human, residues 15-110, E56K
B5: His6-tagged recombinant NOD1 CARD (residues 15-110) D48K (domain or fragment, human, UniProt Q9Y239-1 15-110, looked up)
chain: ESHPHIQLLKSNRELLVTHIRNTQCLVDNLLKNKYFSAEDAEIVCACPTQPDKVRKILDLVQSKGEEVSEFFLYLLQQLADAYVDLRPWLLEIGFS
notes: NOD1 CARD domain, human, residues 15-110, D48K
B6: His6-tagged recombinant NOD1 CARD (residues 15-110) E53K (domain or fragment, human, UniProt Q9Y239-1 15-110, looked up)
chain: ESHPHIQLLKSNRELLVTHIRNTQCLVDNLLKNDYFSAKDAEIVCACPTQPDKVRKILDLVQSKGEEVSEFFLYLLQQLADAYVDLRPWLLEIGFS
notes: NOD1 CARD domain, human, residues 15-110, E53K

Target: the molecule itself
Experiment: SEC; Superdex 75 HiLoad 16/60, 25 mM sodium phosphate, 100 mM NaCl, no reducing agent; monomer and dimer

Stoichiometry N, 2:
B1
B2
B3
B4
B5
B6

Reference: PMC4132792, “Engagement of Nucleotide-binding Oligomerization Domain-containing Protein 1 (NOD1) by Receptor-interacting Protein 2 (RIP2) Is Insufficient for Signal Transduction*” (The Journal of Biological Chemistry, 2014)
